In this test the target is CX3CR1 (endogenous, on 3T3-L1 adipocytes) (mouse) (UniProt Q9Z0D9). The test is described as follows: cell-based or functional assay.

This note sets out measurements from patent publication US20060160076A1.

Chain of UniProt Q9Z0D9 (Q9Z0D9 whole entry): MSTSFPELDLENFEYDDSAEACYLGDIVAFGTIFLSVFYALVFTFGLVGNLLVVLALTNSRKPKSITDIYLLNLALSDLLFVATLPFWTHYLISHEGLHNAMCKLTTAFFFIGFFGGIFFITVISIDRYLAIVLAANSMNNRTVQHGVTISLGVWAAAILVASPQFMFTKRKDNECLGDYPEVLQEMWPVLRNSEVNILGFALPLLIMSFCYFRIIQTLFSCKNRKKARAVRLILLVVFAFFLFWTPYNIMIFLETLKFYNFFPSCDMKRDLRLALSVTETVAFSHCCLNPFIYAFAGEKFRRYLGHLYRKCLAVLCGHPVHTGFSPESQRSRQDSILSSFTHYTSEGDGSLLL

Regarding “recombinant soluble fractalkine (ligand)”, the fold change in glucose uptake over vehicle pretreatment alone; +1 nM FRA, +0.1 nM INS was 1.6 fold; the fold change in glucose uptake over vehicle pretreatment alone; +1 nM FRA, +1 nM INS stood at 1.6 fold; the fold change in glucose uptake over vehicle pretreatment alone; +1 nM FRA, +10 nM INS stood at 0.9 fold; the fold change in glucose uptake over vehicle pretreatment alone; +1 nM FRA, basal was 1.4 fold. The fold change in glucose uptake over vehicle pretreatment alone; +10 nM FRA, +0.1 nM INS turned out to be 1.9 fold; the fold change in glucose uptake over vehicle pretreatment alone; +10 nM FRA, +1 nM INS was found to be 1.8 fold; the fold change in glucose uptake over vehicle pretreatment alone; +10 nM FRA, +10 nM INS came out at 0.9 fold; the fold change in glucose uptake over vehicle pretreatment alone; +10 nM FRA, basal came out at 1.3 fold. The fold change in glucose uptake over vehicle pretreatment alone; +100 nM FRA, +0.1 nM INS turned out to be 2 fold; the fold change in glucose uptake over vehicle pretreatment alone; +100 nM FRA, +1 nM INS was found to be 1.3 fold; the fold change in glucose uptake over vehicle pretreatment alone; +100 nM FRA, +10 nM INS was found to be 1.1 fold; the fold change in glucose uptake over vehicle pretreatment alone; +100 nM FRA, basal was found to be 1.3 fold. The substance also registered a mean 2-DOG uptake value; 1 nM FRA+0.1 nM INS of 1090, a mean 2-DOG uptake value; 1 nM FRA+10 nM INS of 3660, a mean 2-DOG uptake value; 1 nM FRA+Basal of 544 and a mean 2-DOG uptake value; 1 nM FRA+nM INS (so in the source) of 3160. In addition, the mean 2-DOG uptake value; 10 nM FRA+0.1 nM INS was 1280, the mean 2-DOG uptake value; 10 nM FRA+1 nM INS was found to be 3540, the mean 2-DOG uptake value; 10 nM FRA+10 nM INS was found to be 3750 and the mean 2-DOG uptake value; 10 nM FRA+Basal was 521. This substance also showed a mean 2-DOG uptake value; 100 nM FRA+0.1 nM INS of 1350, a mean 2-DOG uptake value; 100 nM FRA+1 nM INS of 2730, a mean 2-DOG uptake value; 100 nM FRA+10 nM INS of 4350 and a mean 2-DOG uptake value; 100 nM FRA+Basal of 515.
